In paper PMC12350261:

Assays:
[1] = target: human D-glucuronyl C5-epimerase Glce^167-617 (human); assay: dynamic light scattering; DynaPro NanoStar, room temperature, 2 uM Glce^167-617; hydrodynamic radius turned into an estimated molecular weight
[2] = target: human D-glucuronyl C5-epimerase Glce^167-617 (human); assay: SEC; Superdex 200 10/300 GL, 18 C, 20 mM Tris-HCl pH 8.0, 200 mM NaCl, 1 mM DTT, 100 ug loaded, calibrated with gel filtration standard; apparent molecular weight
[3] = target: human D-glucuronyl C5-epimerase Glce^167-617 (human); assay: crystal structure; apo Glce^167-617, sitting-drop vapour diffusion at 20 C, 0.2 M ammonium sulfate, 0.1 M Tris pH 8.5, 22% PEG 3,350; space group C 1 2 1, two molecules in the asymmetric unit; 2.88 A

- stoichiometry N [1]: 2
- stoichiometry N [2]: 2
- stoichiometry N [3]: 2
Substance: human D-glucuronyl C5-epimerase Glce^167-617 (domain or fragment)
